Values of other authors, collected in patent publication US20060182683A1, “Methods for reduced renal uptake of protein conjugates” (Center for Molecular Medicine and Immunology, priority 1995, published 2006).

Assays:
rats = settings: dose range 0.01-0.02 mg/kg; cited from earlier work
Xenopus oocytes = settings: microinjected into Xenopus oocytes; read-out: IC50, inhibition of protein synthesis; cited from earlier work
[1] = tested on: M109 Madison lung carcinoma; settings: cited from earlier work
[2] = molecular target: T1, mammalian placental ribonuclease inhibitor (Homo sapiens, UniProt P13489); settings: cited from earlier work
T1 sequence (P13489 1-461): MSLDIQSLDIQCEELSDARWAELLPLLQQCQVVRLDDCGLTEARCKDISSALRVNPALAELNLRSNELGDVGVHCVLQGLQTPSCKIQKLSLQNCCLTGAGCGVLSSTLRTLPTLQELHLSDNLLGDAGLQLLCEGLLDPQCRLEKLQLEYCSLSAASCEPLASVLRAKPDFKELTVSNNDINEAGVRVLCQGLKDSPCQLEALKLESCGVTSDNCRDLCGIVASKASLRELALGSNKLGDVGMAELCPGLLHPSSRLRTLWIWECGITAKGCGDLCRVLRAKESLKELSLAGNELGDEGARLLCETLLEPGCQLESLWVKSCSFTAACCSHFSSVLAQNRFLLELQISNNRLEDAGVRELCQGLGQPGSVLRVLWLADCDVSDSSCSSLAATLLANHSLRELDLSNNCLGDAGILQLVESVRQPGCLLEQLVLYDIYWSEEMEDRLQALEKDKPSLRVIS

[3] = tested on: protein synthesis in a rabbit reticulocyte lysate; settings: read-out: IC50, inhibition of protein synthesis; cited from earlier work
[4] = tested on: patients suffering from a variety of relapsing and resistant tumors; settings: intravenous; mainly due to renal toxicity; cited from earlier work
dogs = settings: 0.005-0.15 mg/kg; cited from earlier work

B1: ranpirnase (protein, UniProt P22069 1-104, looked up)
Protein P-30: QDWLTFQKKHITNTRDVDCDNIMSTNLFHCKDKNTFIYSRPEPVKAICKGIIASKNVLTTSEFYLSDCNVTSRPCKYKLKKSTNKFCVTCENQAPVHFVGVGSC
notes: non-mammalian ribonuclease (RNAse), molecular weight 12,000, purified from Rana pipiens oocytes and early embryos
- toxicity (rats): predictable, dose-dependent and reversible toxicity
- IC50 (Xenopus oocytes): 100 pM
- survival ([1]; daily and weekly schedules, intraperitoneal): significantly prolonged survival
- animals surviving long-term, apparently cured ([1]; weekly schedule): six of eighteen
- inhibition by mammalian placental ribonuclease inhibitor [2]: not inhibited
- IC50 [3]: 10 pM
- maximum tolerated dose [4]: 960 μg/m^2
- toxicity (dogs): predictable, dose-dependent and reversible toxicity
